From PMC3784611 (Biochemistry, 2013)
Values belong to the molecule of their own block, whether it stands above or below them.

Key:
[1] = target: unmyristoylated recoverin (bovine) (UniProt P21457); assay: NMR pulsed-field gradient diffusion
[2] = target: unmyristoylated recoverin (bovine) (UniProt P21457); assay: 15N NMR relaxation
CW-EPR line shape = target: the molecule itself; assay: CW-EPR line shape

stoichiometry N [1]: 2
stoichiometry N [2]: 2
Molecule: unmyristoylated recoverin (from UniProt P21457 1-202) (natural protein)

B1: myristoylated recoverin spin-labeled only at Cys39 (natural protein, bovine)
chain: GNSKSGALSKEILEELQLNTKFTEEELSSWYQSFLKECPSGRITRQEFQTIYSKFFPEADPKAYAQHVFRSFDANSDGTLDFKEYVIALHMTSAGKTNQKLEWAFSLYDVDGNGTISKNEVLEIVTAIFKMISPEDTKHLPEDENTPEKRAEKIWGFFGKKDDDKLTEKEFIEGTLANKEILRLIQFEPQKVKEKLKEKKL
modifications: N-terminal myristoyl group; nitroxide spin label at the native cysteine C39
stoichiometry N (CW-EPR line shape): 2
